Assay [1] has as its target T1, human B7H3-4Ig on BaF3 cells (BaF3/B7H3-4Ig) (human, UniProt Q5ZPR3 29-534).
T1 sequence: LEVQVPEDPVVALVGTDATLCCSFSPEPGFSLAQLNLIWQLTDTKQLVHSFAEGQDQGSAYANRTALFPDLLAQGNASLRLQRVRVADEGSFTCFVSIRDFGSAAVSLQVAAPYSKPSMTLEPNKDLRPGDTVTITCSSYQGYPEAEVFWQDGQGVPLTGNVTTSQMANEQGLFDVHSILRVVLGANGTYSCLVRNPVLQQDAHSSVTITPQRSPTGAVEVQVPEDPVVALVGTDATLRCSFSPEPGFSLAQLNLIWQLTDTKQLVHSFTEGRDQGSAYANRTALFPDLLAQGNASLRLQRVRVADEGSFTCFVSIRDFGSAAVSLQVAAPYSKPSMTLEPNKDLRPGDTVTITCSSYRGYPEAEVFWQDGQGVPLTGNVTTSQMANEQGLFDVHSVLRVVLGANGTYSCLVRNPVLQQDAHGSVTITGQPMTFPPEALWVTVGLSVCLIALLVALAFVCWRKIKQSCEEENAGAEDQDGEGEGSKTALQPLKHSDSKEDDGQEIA
In words: flow cytometry (MFI) on BaF3 cells stably expressing human B7H3-4Ig; panel 'BaF3/4Ig-B7H3'. How it is done:
(§1) Cell surface binding affinity was tested with BaF3/B7H3-2Ig and BaF3/B7H3-4Ig the same method separately. Cells were washed with PBS and aliquot to 96-well U-bottom plate with a cell density of 5×10\hat{ }5 cells/well. For live/dead stain, LIVE/DEAD® Fixable Aqua Dead Cell Stain Kit (Life technologies, L34957) was applied (1:1000 in PBS, 100 ul/well) to cells, and incubated at 4° C. for 10 min FACS buffer (2% FBS in PBS, 100 ul/well) was added to each well to terminate staining. Centrifuge (1200 rpm, 5 min) to discard supernatant and wash with FACS buffer once. Humanized anti-B7H3 antibodies were diluted in FACS buffer to according concentrations and added to each well (100 ul/well). Cells were incubated at 4° C. for 30 min, and then, washed twice with FACS buffer. Alexa Fluor® 594 labeled goat anti-human IgG (Jackson Immuno Research, 109-585-088) was added (1:500 in FACS buffer) to label bounded antibodies. Cells were incubated at 4° C. for 30 min, and then, washed twice with FACS buffer.
On the technique in general: A flow cytometer gives signals particle by particle.

In assay [2] the target is T2, human B7H3-2Ig on BaF3 cells (BaF3/B7H3-2Ig) (human, UniProt Q5ZPR3 29-534).
T2 chain: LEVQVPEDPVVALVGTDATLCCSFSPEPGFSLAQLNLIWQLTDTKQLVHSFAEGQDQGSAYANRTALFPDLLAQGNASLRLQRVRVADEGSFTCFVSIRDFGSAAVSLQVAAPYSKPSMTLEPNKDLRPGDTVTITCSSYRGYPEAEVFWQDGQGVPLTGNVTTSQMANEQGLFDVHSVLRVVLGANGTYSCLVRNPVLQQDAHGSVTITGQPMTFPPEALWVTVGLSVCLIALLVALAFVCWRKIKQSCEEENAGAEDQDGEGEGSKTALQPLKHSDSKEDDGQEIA
In words: flow cytometry (MFI) on BaF3 cells stably expressing human B7H3-2Ig; panel 'BaF3/2Ig-B7H3'.

The target of assay [3] is T1, human B7H3-4Ig on BaF3 cells …. In words: flow cytometry on BaF3/B7H3-4Ig cells. How it is done:
as §1

The target of assay [4] is T3, Mouse B7H3 (plate-coated protein, ELISA) (mouse, UniProt Q8VE98 29-248, limits assumed).
T3 sequence (looked up): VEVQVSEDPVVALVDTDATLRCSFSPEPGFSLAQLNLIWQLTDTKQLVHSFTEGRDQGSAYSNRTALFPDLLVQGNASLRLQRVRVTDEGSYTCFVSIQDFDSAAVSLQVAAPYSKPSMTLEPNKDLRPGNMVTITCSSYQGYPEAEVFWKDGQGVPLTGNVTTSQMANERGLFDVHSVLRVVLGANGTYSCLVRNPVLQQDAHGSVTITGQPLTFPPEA
In words: ELISA, antigen coated on plate, anti-human IgG-HRP. The procedure: (§2) In order to test humanized anti-B7H3 antibody binding affinity, an ELISA analysis was carried out. Human B7H3, mouse B7H3, and cynomolgus B7H3 (2 ug/ml, in PBS) were coated on MaxiSorp 96-well plates (NUNC, 449824) in 0.5M carbonate/bicarbonate buffer, pH9.6, incubated at 4° C. overnight. Coated plates were blocked with skimmed milk (5%, in PBST) for 1 h. Humanized anti-B7H3 antibodies were diluted and added to the plates, and incubated for 2 h at room temperature. Washed three times with PBST (1×PBS with 0.05% tween-20) to eliminate un-bounded antibodies. Goat anti-Human IgG-HRP (Easybio, BE0122, 1:5000 in PBS) was added and incubated for 1 h. Washed three times with PBST (lx PBS with 0.05% tween-20) to eliminate un-bounded antibodies. TMB (eBioscience, 00-4201-56) was added (50 ul/well) for color rendering and stopped by 2N H2SO4 (50 ul/well). Optical density was measured at 450 nm and […]. As shown in FIG. 1A and Table 1, the antibodies bind to human, mouse and cynomolgus monkey B7H3 protein with high affinity. The binding ability of the mAbs to cynomolgus B7H3 is similar to that for human B7-H3 protein.

Assay [5] deals with T4, Cynomolgus B7H3 (plate-coated protein, ELISA) (cynomolgus monkey).
T4 chain: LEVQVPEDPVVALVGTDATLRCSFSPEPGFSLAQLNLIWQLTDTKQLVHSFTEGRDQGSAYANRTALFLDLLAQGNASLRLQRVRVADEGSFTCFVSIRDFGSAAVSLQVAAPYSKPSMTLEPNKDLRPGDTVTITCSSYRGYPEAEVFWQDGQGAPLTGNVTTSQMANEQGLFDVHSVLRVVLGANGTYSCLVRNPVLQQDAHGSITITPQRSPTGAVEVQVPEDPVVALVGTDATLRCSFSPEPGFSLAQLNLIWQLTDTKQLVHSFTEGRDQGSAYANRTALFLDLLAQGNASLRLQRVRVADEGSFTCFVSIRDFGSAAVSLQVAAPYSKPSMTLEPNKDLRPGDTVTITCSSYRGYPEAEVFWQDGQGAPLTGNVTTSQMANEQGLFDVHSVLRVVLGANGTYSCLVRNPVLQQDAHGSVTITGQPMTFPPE
In words: ELISA, antigen coated on plate, anti-human IgG-HRP. The procedure:
as §2
Background: ELISA stands for enzyme-linked immunosorbent assay.

Assay [6] deals with T5, Human B7-H3 extracellular domain (NCBI Reference Sequence: NM_025240.2) (human, UniProt Q5ZPR3 29-466).
T5 chain: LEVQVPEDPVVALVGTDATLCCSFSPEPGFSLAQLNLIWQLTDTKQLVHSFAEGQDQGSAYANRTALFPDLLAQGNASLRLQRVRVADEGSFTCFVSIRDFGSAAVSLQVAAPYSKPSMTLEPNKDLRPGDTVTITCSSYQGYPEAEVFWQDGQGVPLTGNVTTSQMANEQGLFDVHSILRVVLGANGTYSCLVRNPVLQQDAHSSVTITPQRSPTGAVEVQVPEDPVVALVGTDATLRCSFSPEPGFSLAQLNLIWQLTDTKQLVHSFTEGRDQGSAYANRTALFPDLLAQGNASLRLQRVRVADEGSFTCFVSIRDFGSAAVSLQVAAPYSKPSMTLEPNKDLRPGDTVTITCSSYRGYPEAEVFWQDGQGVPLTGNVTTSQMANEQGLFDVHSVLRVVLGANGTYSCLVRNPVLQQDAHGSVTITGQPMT
In words: SPR, Biacore 8K, antibody captured through Fc, B7-H3 ECD as analyte. (In general: In SPR one partner is held on a chip, and binding of the other changes the refractive index at the surface.)

Assay [7] has as its target B7H3 expressed on LPS-stimulated human PBMCs (monocytes) (human) (UniProt Q5ZPR3). In words: flow cytometry on LPS-stimulated human PBMCs.
For assay [8], the target named is T2, human B7H3-2Ig on BaF3 cells …. In words: flow cytometry on BaF3/B7H3-2Ig cells.
Assay [9] addresses Human B7H3 (plate-coated protein, ELISA) (human) (UniProt Q5ZPR3). In words: ELISA, antigen coated on plate, anti-human IgG-HRP.
Assay [10] has as its target B7H3 expressed on LPS-stimulated human PBMCs (monocytes) (human) (UniProt Q5ZPR3). In words: flow cytometry (MFI) on LPS-stimulated human PBMCs; panel 'XKH007-2721'.
Assay [11] deals with T1, human B7H3-4Ig on BaF3 cells …. In words: flow cytometry (MFI) on BaF3 cells stably expressing human B7H3-4Ig; panel 'BaF3-B7H3-4Ig'. The procedure:
as §1

For assay [12], the target named is B7H3 expressed on LPS-stimulated human PBMCs (monocytes) (human) (UniProt Q5ZPR3). In words: flow cytometry (MFI) on LPS-stimulated human PBMCs; panel 'XKH007 23-5423'.
Assay [13] has the same target. In words: flow cytometry (MFI) on LPS-stimulated human PBMCs; panel 'XKH007-2722'.
Assay [14] shares this target. In words: flow cytometry (MFI) on LPS-stimulated human PBMCs; panel 'XKH007 23-5424'.
Assay [15] has the same target. In words: flow cytometry (MFI) on LPS-stimulated human PBMCs; panel 'XKH007-272121'.

Substitutions are numbered along the chain they refer to.

B1: #27-21 (VH2-2-VL2-1) (antibody, V domains shown)
VH: QVQLVQSGAEVVKPGASVKVSCKASGYTFTNYWMHWVKQAPGQGLEWIGMIHPNSGAFNYNERFKTRVTITVDKSTSTAYMELSSLRSEDTAVYYCARSTALATGYWGQGTLLTVSS
VL: DIQLTQSPSFLSASVGDRVTITCSASSSVSYMYWYQQKPGKSPKLLIYDTSNLASGVPSRFSGSGSGTEYTLTISSLQPEDFATYYCQQWSSYPLTFGQGTKLEIK
notes: Humanized antibody from murine #27; Detected with anti-human IgG and captured through Fc; also called #27-VH2-2/VL2-1
The term EC50 denotes the midpoint of the concentration-response curve. A low value points to a more potent agent. The term Kd denotes the constant that tells how readily two partners part at equilibrium. Read a high Kd as lower affinity. As a reminder, the koff is the rate constant with which the complex falls apart. A low value points to a long-lived complex. A word on the kon: it is the rate constant with which the complex forms. Lower therefore signals slow association. By EC50 (read off the curve) is commonly meant the concentration needed to bring the measured effect to its halfway point. A higher EC50 (read off the curve) goes with a less potent agent. Turning to B1, the EC50 was 0.896 nM in assay [1]; 0.897 nM in assay [2]; under 1 nM in [3]; 0.586 nM in [4]; 0.685 nM in assay [5]; under 1 nM in assay [7]. Also, the figures for the EC50 in [8] and in assay [9] were under 1 nM and 0.618 nM, respectively. Besides, in [6], the Kd amounted to 1.44 nM. This molecule also came in with a koff in assay [6] of 0.000431 s⁻¹. For the same molecule, the kon in [6] was 299000 M⁻¹ s⁻¹. In [10], this molecule had an EC50 (read off the curve) of 0.06 nM.

B2: #23-5423 (VH5-4-VL2-3) (antibody, IgG1, V domains shown)
VH: QVQLVQSGAEVKKPGESLKISCKASGYNFNNYWMHWVRQRPGKGLEWIGMIHPNSGTFNYNERFKRKATLTVDKSISTAYLQWSSLKAEDTAMYYCAKSTALATDYWGQGTLVTVSS
VL: B1 VL with D1Q, Q3V, F10T, S42A, S59I, E69S, E80D
notes: Humanized antibody from murine #23
As for B2, in [11], the binding result was “binds”. Moreover, the EC50 in assay [4] was 1.44 nM; in [5], 0.042 nM; in [7] it was under 3 nM; in [9], 0.0685 nM; in assay [12] it was 1.54 nM. For the same molecule, the Kd in assay [6] came to 1.05 nM. For the same molecule, in assay [6], the koff was determined as 0.000345 s⁻¹. Moreover, in [6], the kon stood at 329000 M⁻¹ s⁻¹.

B3: #27-22 (VH2-2-VL2-2) (antibody, IgG1, V domains shown)
VH: B1 VH
VL: B1 VL with I21M, A83V
notes: Humanized antibody from murine #27; also called #27-VH2-2/VL2-2
For the molecule B3, the EC50 is 0.984 nM in [1]; 1.16 nM in assay [2]; under 1 nM in assay [3]; 0.34 nM in assay [4]; 0.584 nM in assay [5]; 0.131 nM in [13]. Also, the EC50 in assay [7] was under 1 nM; in assay [8], under 1 nM; in assay [9] it was 0.333 nM. In addition, the Kd in [6] is 1.26 nM. Further, the koff in assay [6] was determined as 0.000365 s⁻¹. Besides, the kon in assay [6] amounted to 288000 M⁻¹ s⁻¹.

B4: #23-5424 (VH5-4-VL2-4) (antibody, IgG1, V domains shown)
VH: B2 VH
VL: B1 VL with D1Q, Q3V, F10T, I21M, S42A, S59I, E69S, L77M, E80D, A83V
notes: Humanized antibody from murine #23; also called #23-VH5-4/VL2-4
Take B4: the binding result in assay [11] is “binds”. The concentration for a half-maximal effect (EC50) was 1.98 nM in assay [14]; 4.9 nM in [4]; 0.0652 nM in assay [5]; under 3 nM in assay [7]; 0.125 nM in [9]. In [6], the affinity, expressed as Kd, was 1.36 nM. Moreover, the koff in [6] was determined as 0.000356 s⁻¹. In assay [6], this molecule returned an on-rate constant (kon) of 263000 M⁻¹ s⁻¹.

B5: #27-2121 (VH2-1-VL2-1) (antibody, IgG1, V domains shown)
VH: B1 VH with K38R, I48M, L113V
VL: B1 VL
notes: Humanized antibody from murine #27; also called #27-VH2-1/VL2-1
As for B5, the EC50 is 0.908 nM in assay [1]; 0.777 nM in [2]; under 1 nM in assay [3]; 0.462 nM in [4]; 0.494 nM in assay [5]; under 1 nM in assay [7]. Further, the EC50 in assay [8] is under 1 nM; in assay [9], 0.583 nM; in assay [15] it was 0.117 nM. The same molecule returned a Kd in assay [6] of 1.42 nM. This molecule showed a dissociation rate constant (koff) in [6] of 0.000433 s⁻¹. This molecule also displayed a kon in [6] of 306000 M⁻¹ s⁻¹.

The record behind these values is patent US20220119529A1 (SUZHOU KANOVA BIOPHARMACEUTICAL, published 2022).
